B1: FIXa-Y155F/K247N/N249S/N260S (protein)
chain 1: YNSGKLEEFVQGNLERECMEEKCSFEEAREVFENTERTTEFWKQYVDGDQCESNPCLNGGSCKDDINSYECWCPFGFEGKNCELDVTCNIKNGRCEQFCKNSADNKVVCSCTEGYRLAENQKSCEPAVPFPCGRVSVSQTSKLTR
chain 2: VVGGEDAKPGQFPWQVVLNGKVDAFCGGSIVNEKWIVTAAHCVETGVKITVVAGEHNIEETEHTEQNRSVIRIIPHHNYSAAINKYNHDIALLELDEPLVLNSYVTPICIADKEYTNIFLKFGSGYVSGWGRVFHKGRSALVLQYLRVPLVDRATCLRSTKFTIYNNMFCAGFHEGGRDSCQGDSGGPHVTEVEGTSFLTGIISWGEECAMKGKYGIYTKVSRYVNWIKEKTKLT
B2: FIXa-D104N/K106S/Y155F/K247N/N249S/N260S (protein)
chain 1: YNSGKLEEFVQGNLERECMEEKCSFEEAREVFENTERTTEFWKQYVDGDQCESNPCLNGGSCKDDINSYECWCPFGFEGKNCELDVTCNIKNGRCEQFCKNSANNSVVCSCTEGYRLAENQKSCEPAVPFPCGRVSVSQTSKLTR
chain 2: VVGGEDAKPGQFPWQVVLNGKVDAFCGGSIVNEKWIVTAAHCVETGVKITVVAGEHNIEETEHTEQNRSVIRIIPHHNYSAAINKYNHDIALLELDEPLVLNSYVTPICIADKEYTNIFLKFGSGYVSGWGRVFHKGRSALVLQYLRVPLVDRATCLRSTKFTIYNNMFCAGFHEGGRDSCQGDSGGPHVTEVEGTSFLTGIISWGEECAMKGKYGIYTKVSRYVNWIKEKTKLT
B3: FIXa-K247N/N249S/N260S (protein)
chain 1: YNSGKLEEFVQGNLERECMEEKCSFEEAREVFENTERTTEFWKQYVDGDQCESNPCLNGGSCKDDINSYECWCPFGFEGKNCELDVTCNIKNGRCEQFCKNSADNKVVCSCTEGYRLAENQKSCEPAVPFPCGRVSVSQTSKLTR
chain 2: VVGGEDAKPGQFPWQVVLNGKVDAFCGGSIVNEKWIVTAAHCVETGVKITVVAGEHNIEETEHTEQNRSVIRIIPHHNYSAAINKYNHDIALLELDEPLVLNSYVTPICIADKEYTNIFLKFGSGYVSGWGRVFHKGRSALVLQYLRVPLVDRATCLRSTKFTIYNNMFCAGFHEGGRDSCQGDSGGPHVTEVEGTSFLTGIISWGEECAMKGKYGIYTKVSRYVNWIKEKTKLT
B4: FIXa-D104N/K106S/K247N/N249S/N260S (protein)
chain 1: YNSGKLEEFVQGNLERECMEEKCSFEEAREVFENTERTTEFWKQYVDGDQCESNPCLNGGSCKDDINSYECWCPFGFEGKNCELDVTCNIKNGRCEQFCKNSANNSVVCSCTEGYRLAENQKSCEPAVPFPCGRVSVSQTSKLTR
chain 2: VVGGEDAKPGQFPWQVVLNGKVDAFCGGSIVNEKWIVTAAHCVETGVKITVVAGEHNIEETEHTEQNRSVIRIIPHHNYSAAINKYNHDIALLELDEPLVLNSYVTPICIADKEYTNIFLKFGSGYVSGWGRVFHKGRSALVLQYLRVPLVDRATCLRSTKFTIYNNMFCAGFHEGGRDSCQGDSGGPHVTEVEGTSFLTGIISWGEECAMKGKYGIYTKVSRYVNWIKEKTKLT

Experiments:
[1] = biological target: plasma purified human antithrombin III (AT-III), in complex with unfractionated heparin (UFH); assay: ratio of K0.5 for AT-III/UFH inhibition, variant over Catalyst Biosciences WT FIXa

Sequence of Factor X (FX), P00742 (P00742 whole entry, looked up): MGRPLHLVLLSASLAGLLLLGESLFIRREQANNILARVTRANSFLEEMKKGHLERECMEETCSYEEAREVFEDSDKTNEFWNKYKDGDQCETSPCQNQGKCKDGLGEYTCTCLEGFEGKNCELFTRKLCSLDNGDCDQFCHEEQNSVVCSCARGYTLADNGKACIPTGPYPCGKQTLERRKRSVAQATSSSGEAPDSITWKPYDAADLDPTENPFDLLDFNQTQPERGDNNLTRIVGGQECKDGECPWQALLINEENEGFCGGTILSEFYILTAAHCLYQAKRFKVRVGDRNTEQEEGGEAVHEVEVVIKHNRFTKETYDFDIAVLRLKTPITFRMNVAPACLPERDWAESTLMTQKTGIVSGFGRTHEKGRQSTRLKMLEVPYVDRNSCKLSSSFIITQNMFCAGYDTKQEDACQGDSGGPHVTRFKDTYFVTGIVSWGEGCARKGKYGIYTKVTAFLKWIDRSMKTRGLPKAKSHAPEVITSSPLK
Sequence of Factor X, P00742 (P00742 whole entry, looked up): as above

Protein	KM (Factor X (FX), P00742) [µM]	kcat of FX activation by FIXa (Xase complex with FVIIIa, PC/PS vesicles, Ca2+) (Factor X (FX), P00742) [s⁻¹]	% of WT kcat/KM (Factor X, P00742) [%]	kcat (Factor X, P00742) [s⁻¹]	kcat/KM (Factor X, P00742) [M⁻¹ s⁻¹]	K0.5-mut/K0.5-wt [1] [fold]
B1	0.0965	1.8	43	1.8	1.9e+07	7.9
B2	0.0685	0.5	18	0.5	8.2e+06	35.8
B3	0.114	3.3				8.1
B4	0.0612	0.6	22	0.6	9.8e+06	65.3

From patent publication US20210238260
